The results in this text go back to the nanobody polyreactivity screen of Harvey et al. (2022).

The nature of this data set: yeast display, Sf9 membrane polyspecificity reagent, FACS + sequencing; frameworks hold sequencing errors. Summed up:
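Genes from sorted yeast were amplified by colony PCR, read by MiSeq 2 × 250 sequencing and filtered on CDR length. These cells carried a synthetic nanobody library in Saccharomyces cerevisiae BJ5465 and were sorted by FACS into low and high (top ~1%) gates on anti-HA and streptavidin fluorescence. Polyreactivity is labelled according to the gate of origin.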
Take “QDNLVESGGGLVQAGGSLRLICAASGSTNRSNAMGWYRQAPGKERELVAANSRTGGRTYYADSVKGRFTISRDNAKNTVYLQMKCLNQEDTAVYYCARADKRLEYSENYYWGQGTQVTVSS”: the “polyreactivity (PSR sort gate)” value is recorded as “high polyreactivity”.
In the case of “QDQHVESGGGLVQAGGSLRLICSASGSTNGLGWYRQAPGKERELVAVITWDTGGTYYADSVKGRFTISRDNAKNTVYLQMNSLKPEDTAVYYCAKDVGHGAGNLMGYWGQGTQVTVSS”, the “polyreactivity (PSR sort gate)” value is “low polyreactivity”.
For “QDQHVESGGGLVQAGGSLRLRCSASVRTYFDYDMGRYRQAPGKERELVAAISQSGGSTYYADSVKGRFTISRDNAKYTFYLVMNSLKPEDTGVYECNAYYGYGHRIYDYWGQGTQVTVSS”, the “polyreactivity (PSR sort gate)” value is “high polyreactivity”.
Consider “QDQHVESGGGLVQAGGSLRLSCAASGFIFSQYAMGWYRQAPGKERELVAAISSGSTYADSVKGRFTISRDNAKNTVYLQMNSLKPEDTAVYYCAVDYHQAWPSADYWFEYDYWGQGTQVTVSS”, for which the “polyreactivity (PSR sort gate)” value is “low polyreactivity”.
In the case of “QDQHVESGGGLVQAGGSLRLSCAASGSIFDVYTMGWYRQAPGKERELVAAINTGGGSTYYADSVKGRFTISRDKAKNTVYLQMNSLKPEDTAVYYCAASVYHYGPLYYWGQGTQVTVSS”, the “polyreactivity (PSR sort gate)” value was “low polyreactivity”.
Regarding “QDQHVESGGGLVQAGGSLRLSCAASGSIFPWYTMGWYRQAPGKERELVASITKSGARTYYADSVKGRFTISRDNAKNTVYLEITSLKPEDTAVYYCAASLWQRAKVRYQYWGQGPQVTVSS”, the “polyreactivity (PSR sort gate)” value is “high polyreactivity”.
In the case of “QDQHVESGGGLVQAGGSLRLSCAAYGSTFLYYAMGWFRQAPGKERELVAAITSGGSTYYADSVKGRFTISRDNPKNTVFLQMNRLKPEDTAVYYCTVFGYGYWGQGTQVTVSS”, the “polyreactivity (PSR sort gate)” value is recorded as “high polyreactivity”.
Consider “QDQHVESGGGLVQAGGSLRLSFAASGRTFISYTKGWYRPAPGKERELVAAINFSGGITYYADSVKGRFTISHDNAMNTVYLQMNSLKPVDTAVYYCAADWRTRYDYWGQGTQVTVSS”, for which the “polyreactivity (PSR sort gate)” value is given as “low polyreactivity”.
Consider “QDQHVESGGGLVQAGGSLRLSGAASGGTLWVNTMGWYRPAPGKERELVAAISRRGGSTYYADSVKGRFTISRDNAKNTVYLQMNSLKPEDTAVYYCAKGYSSHYWWAYDSWGQGTLVTVSS”, for which the “polyreactivity (PSR sort gate)” value is recorded as “high polyreactivity”.
On to “QDQHVESGGGLVQAGGSLRLSGADSGSIFLLYAMGCYRQAPGKERELVAAISTRDGSTYYADSVKGRFTISRDNAKNTVYLQMNSLKPEDTAVYYCATLYSYNYWGQGTQVTVSS”, for which the “polyreactivity (PSR sort gate)” value is “high polyreactivity”.
Consider “QDQHVESVGGLVQAGGSLRLSCAASGRTFYRYAMGWSRQAPGKEREFVAAISHGGSNTRYADSVKGRFTISRDNAKNTVYLQMKSLKPEDTAVYYCAARAYQHYNWGQGTQVTVSS”, for which the “polyreactivity (PSR sort gate)” value is listed as “high polyreactivity”.
With “QDQHVESVGGLVQAGGSLRLSIAASVLILWQNAMGWYRQAPGKERELVARITWSGVSTDYADSVKGRFTISRDNAKNTVYFQMNSLKPEDTADYYWAADYNRYSYNYARYSLGQNDYWGQGTQVTVSS”, the “polyreactivity (PSR sort gate)” value is “low polyreactivity”.
As for “QDQIVESGGGLVQAGGSLRLSCAASGSTFQANAMGWYRQAPGKERELVAAISRSGGSTYYADSVKGRFTISRDNAKNTVYLQMNSLKPEDTAVFYCAADYEYSGYGYWGQGTQVTVSS”, the “polyreactivity (PSR sort gate)” value is “high polyreactivity”.
“QDQIVESGGGLVQAGGSLRLSCASYGSTFDRYAMGWYRQAQGKERELVAVITQSGSSTYYADSVKGRFTISRDNAKNTVYLQMKSLKPEDTAVYYCAARYQGSRGQEYYYWGQGTQVTVSS”: the “polyreactivity (PSR sort gate)” value is given as “high polyreactivity”.
Regarding “QDQIVESGGGLVQAGGSLRLSCSATGRTYVIYAMGWYRQAHGKERELVASIRRGGSTSYADSVKGRFTISRDNAKNTVYLQMKSLKPEDTAVYYCAAGAHRASSSGNGYWGQGSQVTVSS”, the “polyreactivity (PSR sort gate)” value is recorded as “high polyreactivity”.
For the sequence “QDQLEESGGGLVQAGGSLRLICAAYGSTFVLYDMGWYRQEPGKERELVADISYSGGSTYYEDSVKGRFTISRDNAKYTVYLLMKRLIPEDTAFYYCIAGVLVLLYAYLPSELEYWGQGTQVTVSS”, the “polyreactivity (PSR sort gate)” value is reported as “low polyreactivity”.
For “QDQLEESGGGLVQAGGSLRLSCAASGRMFNSYAMGWYRQAPGKERELVAAISFSGGSTYYADSVKGRFTISRDNAKNTVYLQMNSLKPEDTAVYYCNAVTAVDTAHDYWGQGTQVTVSS” the value was “high polyreactivity”; for “QDQLEESGGGLVQAGGSLRLSCAASGRTFFHYAMGWYRQAPGKERELVAGISSGGRTTYADSVKGRFTISRDNAKNTVYLQMISLKPEDTAVYYCAASYIVWLTRGAPRKRFDYWGQGTQVTVSS”, “high polyreactivity”; for “QDQLEESVGGLVQAGGSLRLSCAASGSTFSYYAMGWYRQATGKERELVAAISTLGSSTYYADSVKGRFTISRDNAKNTVNLQMNSLKPEDTAVYYCAVDQYKYDWFYDYYGYTYVYWGQGTQVTVSS”, “high polyreactivity”.
Consider “QDQLGESGGGLVQAGGSLRLTCAASGFIFSNNAMGWYRPSPGKERELVAAISGSGVSTYYADSVKGRFTISRDNAKNTVYLQMNSLKPEDTAVYYCAASASLRHDYWGQGTQVTVSS”, for which the “polyreactivity (PSR sort gate)” value was “high polyreactivity”.
As for “QDQLLESGGGLVQAGGSLRLSCAASGSTFGANAMGWYRQAPGKEREFVAAISRSGLRTYYADSVKGRFTNSRDYAKNTVYIQMNSLKPEDTAVYYCSADCYWWTYTRYDYWGQGSQVTVSS”, the “polyreactivity (PSR sort gate)” value is recorded as “low polyreactivity”.
As to “QDQLVDSGGGLVQAGGNLRLSCAASGRTFPPYSMGWDRQAPGKERELVAAISGSGASTYYADSEKGRFTISRDNAKNTVYLQMNCLKPEDSAVYYCARYRGYWGRYYGVDYGYWGQGTQVTVSS”, the “polyreactivity (PSR sort gate)” value is recorded as “high polyreactivity”.
As for “QDQLVDSGGGLVQAGGSLRLICAASGRTYRKYAMGWYRQAPGKERELVADISWSGGSTYYANSVKGRFTISRDIAKNTVYLQMNSLKPEDTAVYYCAAVPVHTGSLYWGFTTGYDYWGQGTQVTVSS”, the “polyreactivity (PSR sort gate)” value is “low polyreactivity”.
Regarding “QDQLVDSGGGLVQAGGSLRLSCAASGRSFRNNPMGWYRQAPGKERELVAAITSSGASTYYADSVKGRFTISRDNAKNTVYLQMNSLKPEDTAVYSCAAATVRQFRSSLDYWGQGTQVTVSS”, the “polyreactivity (PSR sort gate)” value is recorded as “high polyreactivity”.
As to “QDQLVDSGGGLVQAGGSLRLSCAASGSIQSRYAMGWYRQAPGKERELVAAISRSTDSTYYADSVKGRFTISRDNAKNTVYLKMNSLKPEDTAGYYCNAVYRSSYQKGSMDYWGQGTQVTVSS”, the “polyreactivity (PSR sort gate)” value is “high polyreactivity”.
In the case of “QDQLVDSGGGLVQAGGSLRLSCAASGTFFMGWYRQAPGKERELVAGISIYDGSTYYADSVKGRFTISRDNAKNTVYLQMNRLKPEDTAVYYCAAEFYPTTGFDYWGQGTQVTVSS” it was “low polyreactivity”; in that of “QDQLVDSGGGLVQAGGSLRLSCAASVRTFDRYAMGWYRQAPGKVRELVAAISGRGGSTYYADSVKGRFTISRDNAKNTVYLQMNSLKPEDTAVYYCAARGSLWGAPSDYYYCGQGTQVTVSS”, “high polyreactivity”; in that of “QDQLVDSGGGLVQAGGSLSLSCAASGRTSGRYAMGWYRQAPGKERELVAGITSSGGSTYYADSVKGRFTISRDNAKNTVYLQMNSLKPEDTAVYYCAKVWGAKGKTYRMYSWGKGTQVTVSS”, “high polyreactivity”.
In the case of “QDQLVDSGVGLVQAGGSLRLSCAASGLIFGRNVMGWYRQAPGKERELVAAISWSGGRTYYADSVKGRFTISRDNAKNTVYLQMNSLKPEDTAVDYCATDRSTRTYRSPYDYWGQGTQVTVSS” it was “high polyreactivity”.
In the case of “QDQLVEACGGLVQAGGSLRLSCASSRSIIRGYAMGWYIQAHGKERELVAVIRRTSVSTYYADSVKGRFTISRDNAKNTVYLQMKCLKPEDTAVYYCNTLRLSSYPYYGYLGQGTQVTVSS” it was “high polyreactivity”; in that of “QDQLVEAGGGLVQAGGSLRKSCAASGRIFNTNAMGWNRQAPGKERELVAGITDSGDSTYYADSVKGRFTISRDNAKNTVYLQMNRLKPEDSAVYYCATDPASPYIYDFWGQGTQVTVSS”, “low polyreactivity”; in that of “QDQLVESAGGLVQAGGSLRLSCAASASIFVSYAMGWYRQAPGKERELVAAITRSGGSTYYSDSVKGRFTISRDNAKYTVYLQMNSLKPDDTAVYYCAARSYLGAYRRFYWGQGTQVTVSS”, “high polyreactivity”.
Regarding “QDQLVESAGGLVQAGGSLRLSCAASGSISYNNVMGWYRQAPGKERELVARIRSGGSTYYADSVKGRFTISRDNAKNTVYLQMNSLKPEDTAVYYCAARTKRQAGSYGYWGQGTQVTVSS”, the “polyreactivity (PSR sort gate)” value is “high polyreactivity”.
On to “QDQLVESAGGLVQAGGSLRLTCAASGFIFADNAMGWYRQAPGKERELVAGITSGGITYYADSVKGRFTISRDNAKNTVYLQMNCLKPEDTAVYYCNTTSYPEFDYWGHGTQVTVSS”, for which the “polyreactivity (PSR sort gate)” value is “low polyreactivity”.
On to “QDQLVESCGALVQAGGSLRLSCAASGSTFNFYAMGWYRQAPGKERELVAAITWRGGSTYYADSVKGRFTISRDFAKNTVYLQMNSLKPEDSAVYYCAAARGKDGYWGQGTQVNVSS”, for which the “polyreactivity (PSR sort gate)” value is “high polyreactivity”.
As for “QDQLVESGGELVQAGGSLRLSCASSGRTFSANGMGWYRQAPAKERELVAAITRSGGITYYADSVKGRFTISRVNAKNTVYLQMNSLKPEDTAVYYCAASVYSLSRRSWMDYWGQGTQVTVSS”, the “polyreactivity (PSR sort gate)” value was “low polyreactivity”.
Consider “QDQLVESGGGFVQEGGSLRLSCDPSGRIFYGYVMGRYRQAHGKERELVAAISRRGGSTYYADSVKGRFTISRDNAKNTVYLQMNSMKPVVTAVDYCDAVLSFALVQYYGANRDDYWGQGTQVSVSS”, for which the “polyreactivity (PSR sort gate)” value is reported as “high polyreactivity”.
For “QDQLVESGGGIVQEGGILRLSCAASGRIFVGYAMGWYRQAPGKERELVAAIRRYGTGTYYADSVKGRFTISRDNAKYTVYLKLNSLKTEDTAVYYCDAPELALYFPYDYWGQGTQVTVSS” the value was “low polyreactivity”; for “QDQLVESGGGLDQAGGSLRLSCAASGRIFARYAMGWYRLAPGKERELVAALSRGGSTKYADSVKGRFTISRDNAKNTVYLQLHSLQQEDTAVYYCARQLWGSQYGAYYAGDYWGQVTQVTVSS”, “low polyreactivity”.
In the case of “QDQLVESGGGLDQAGGSLRLSCAASGSTFQLYAMGWYRQAPGKERELVAAISGIGDSTYYADSVKGRFTISRDNAKNTVYLQMNSLKPEDTAVYYCDREFSDGLSGKFDYWGQGTQVTVSS” it was “low polyreactivity”.
In the case of “QDQLVESGGGLDQAGGSLRLSCAASGSTFSPYAMGWYRQAPGKERELVAGITSSGGDSYYADSVKGRFTISRDNAKNTVYLQMKSLKPEDTAVYYCAADWWVLGQLCFDYWGQGTQVNVSS” it was “low polyreactivity”.
